Assay results as given in paper PMC7749166 (Communications Biology, 2020).

Assays:
human C5aR (C5aR^WT) [1] = molecular target: T1, human C5aR (C5aR^WT) (Homo sapiens, UniProt P21730); assay: FD-/FV-based AFM dynamic force spectroscopy (FNdY model) of ligand-functionalized tip vs wild-type C5aR; format: binding; details: FNdY fit
T1 construct: Flag (N); made in house; host or cells: HEK-293S GnTI- cells (BacMam baculovirus)
T1 sequence (P21730 1-350): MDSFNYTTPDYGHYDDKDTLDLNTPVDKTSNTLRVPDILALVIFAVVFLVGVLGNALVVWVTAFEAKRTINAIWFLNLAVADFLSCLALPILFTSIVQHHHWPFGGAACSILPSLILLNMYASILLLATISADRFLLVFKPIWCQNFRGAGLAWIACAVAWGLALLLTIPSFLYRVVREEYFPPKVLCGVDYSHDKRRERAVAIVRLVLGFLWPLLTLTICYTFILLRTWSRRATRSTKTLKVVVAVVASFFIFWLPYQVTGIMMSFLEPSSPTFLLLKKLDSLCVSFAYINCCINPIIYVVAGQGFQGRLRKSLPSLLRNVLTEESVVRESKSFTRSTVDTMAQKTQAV
Method: (§1) The reconstituted C5aR sample solution (either wt-C5aR or mutants) was 20-fold diluted in fusion buffer solution (20 mM HEPES, 300 mM NaCl, and 25 mM MgCl2) and adsorbed on freshly cleaved mica for 15 min. After rinsing with imaging buffer (20 mM HEPES and 300 mM NaCl) the sample was transferred to the AFM.
(§2) Rectangular Si3N4 AFM cantilevers with silicon tips (BioLever mini, Bruker) were first cleaned with chloroform for 10 min, rinsed with ethanol, N2 dried, and then cleaned for 15 min in an ultraviolet radiation and ozone cleaner (UV-O, Jetlight, CA, USA). For the aminofunctionalization, the cantilevers were immersed in an ethanolamine solution (3.3 g ethanolamine in 6.6 ml DMSO) overnight and then rinsed in DMSO (3 × 1 min) and ethanol (3 × 1 min), followed by N2 drying. This was followed by the N-hydroxysuccinimide (NHS)-PEG27-acetal linker attachment. A 1 mg portion of the NHS-PEG27-acetal linker (JKU, Linz, Austria) was diluted in 0.5 ml chloroform with 30 µl triethylamine and the cantilevers were immersed in this solution for 2 h. After three rinsing steps of 10 min in chloroform and N2 drying, the cantilevers were immersed in a 1% citric acid solution for 10 min, rinsed with pure water (3 × 5 min), and dried with N2 once more. tris-NTA-derivatized AFM cantilevers were obtained by pipetting 100 µl of a 100 µM tris-N-nitrilotriacetic amine trifluoroacetate (Toronto Research Chemicals, Canada) (tris-NTA) solution onto the cantilevers, followed by the addition of 2 μl of a freshly prepared 1 M NaCNBH3 solution. The cantilevers were incubated for 1 h, then 5 μl of a 1 M ethanolamine solution pH 8.0 was added for 10 min to quench the reaction. tris-NTA cantilevers were further used to obtain C5a-derivatized tips. For this purpose, 100 μl of a 1 μM C5a protein solution was premixed with 5 μl NiCl2 5 mM and the mixture was pipetted onto the tris-NTA cantilevers. After 2 h of incubation time, the cantilevers were washed in HEPES buffer 3 × 5 min.
(§3) (JKU, Linz, Austria) dissolved in 0.5 ml of chloroform with 30 μl of triethylamine, then washed with chloroform and dried with N2. […] After 3 h of reaction, cantilevers were washed with PBS 3 × 5 min.
(§4) AFM experiments were performed with a Multimode 8 AFM equipped with a Nanoscope V controller (Bruker, Santa Barbara, CA, USA) operated in “PeakForce Tapping QNM mode”. All measurements were carried out in imaging buffer at room temperature (≈24 °C). For the high-resolution characterization of C5aR topographical features, triangular Si3N4 cantilevers (Scanasyst-Fluid+, Bruker) with a sharpened tetrahedral silicon tip of ≈2 nm radius, nominal spring constants of 0.35 N m^−1, and resonance frequency in liquid of ≈75 kHz were used. Multiparametric FD-based AFM measurements with derivatized tips were carried out using BioLever mini cantilevers (Bruker, Santa Barbara) having nominal spring constants of 0.1 N m^−1 and resonance frequency in liquid of ≈25 kHz. The spring constant was calibrated at the end of each experiment for all cantilevers used in this study using the thermal noise method.
(§5) In FD-based AFM measurements, the AFM cantilever is oscillated in a sinusoidal manner well below its resonance frequency, while the sample surface is contoured pixel-by-pixel. For each approach–retraction cycle of the oscillating cantilever, a force–distance curve is recorded. Multiparametric FD-based AFM height, Young’s modulus, and adhesion maps are then obtained from a pixel-by-pixel reconstruction of the acquired data. Overview FD-based AFM maps were acquired by scanning the sample at 1 Hz and a resolution of 512 × 512 pixels, using a force setpoint of ≈150 pN, a 2 kHz oscillation frequency, and a peak-to-peak oscillation amplitude of 100 nm. Adhesion maps were recorded using a scan rate of 0.2 Hz and 256 × 256 pixels. The functionalized AFM cantilever was oscillated at 0.25 kHz with peak-to-peak oscillation amplitudes of 100 nm.

human C5aR (C5aR^WT) [2] = assay: as above; format: binding; details: sum of C5aR + PMX53 and C5aR∆Tyr values
Method: as §1, §2, §3, §4, §5

[3] = C5a tip vs C5aR^WT incubated with PMX53 (effector site blocked; probes binding site), ± s.e.m.

B1: C5a: C5a, a large 74-amino acid glycoprotein; endogenous ligand of C5aR (His6-tag at N-terminal end for AFM tips) (protein)
chain: TLQKKIEEIAAKYKHSVVKKCCYDGACVNNDETCEQRAARISLGPRCIKAFTECCVVASQLRANISHKDMQLGR
modifications: left off: His6, N-terminal, kept
With B1 the “residence time τ0.5” value (human C5aR (C5aR^WT) [1]; C5a tip vs C5aR^WT incubated with PMX53 (effector site blocked; probes binding site)) was 0.2 ms, the “equilibrium force Feq” value (human C5aR (C5aR^WT) [1]; [3]) was 29 ± 4 pN and the “free energy ΔGbu” value (human C5aR (C5aR^WT) [1]; [3]) was -3.9 ± 1.8 kcal/mol. For the same molecule, the “binding equilibrium free energy ΔGbu” value (human C5aR (C5aR^WT) [1]; ± s.e.m., ligand-derivatized AFM tip, 20 mM HEPES, 300 mM NaCl, ≈24 °C) was -13.6 ± 4.1 kcal/mol, the “equilibrium force Feq” value (human C5aR (C5aR^WT) [1]; ± s.e.m., ligand-derivatized AFM tip, C5aR in DOPC/CHS liposomes on mica, 20 mM HEPES, 300 mM NaCl, ≈24 °C) was 46 ± 7 pN and the “residence time τ0.5” value (human C5aR (C5aR^WT) [1]; ligand-derivatized AFM tip, 20 mM HEPES, 300 mM NaCl, ≈24 °C) was 0.6 ms. The “sum of binding free energy of both sites measured individually, ΔGbu (binding site+effector site)” value (human C5aR (C5aR^WT) [2]) was about -8.6 ± 2.3 kcal/mol.
